B1: GFP‐tagged wild‐type RAGE (AAV‐RAGE‐Wt) [mouse] / receptor‐interacting serine/threonine protein kinase 1 (RIPK1), endogenous [mouse (endogenous in BV2 cells and in mouse hippocampus)] (parent complex)
chain 1: GQNITARIGEPLVLSCKGAPKKPPQQLEWKLNTGRTEAWKVLSPQGGPWDSVARILPNGSLLLPATGIVDEGTFRCRATNRRGKEVKSNYRVRVYQIPGKPEIVDPASELTASVPNKVGTCVSEGSYPAGTLSWHLDGKLLIPDGKETLVKEETRRHPETGLFTLRSELTVIPTQGGTHPTFSCSFSLGLPRRRPLNTAPIQLRVREPGPPEGIQLLVEPEGGIVAPGGTVTLTCAISAQPPPQVHWIKDGAPLPLAPSPVLLLPEVGHEDEGTYSCVATHPSHGPQESPPVSIRVTETGDEGPAEGSVGESGLGTLALALGILGGLGVVALLVGAILWRKRQPRREERKAPESQEDEEERAELNQSEEAEMPENGAGGP
chain 2: MQPDMSLDNIKMASSDLLEKTDLDSGGFGKVSLCYHRSHGFVILKKVYTGPNRAEYNEVLLEEGKMMHRLRHSRVVKLLGIIIEEGNYSLVMEYMEKGNLMHVLKTQIDVPLSLKGRIIVEAIEGMCYLHDKGVIHKDLKPENILVDRDFHIKIADLGVASFKTWSKLTKEKDNKQKEVSSTTKKNNGGTLYYMAPEHLNDINAKPTEKSDVYSFGIVLWAIFAKKEPYENVICTEQFVICIKSGNRPNVEEILEYCPREIISLMERCWQAIPEDRPTFLGIEEEFRPFYLSHFEEYVEEDVASLKKEYPDQSPVLQRMFSLQHDCVPLPPSRSNSEQPGSLHSSQGLQMGPVEESWFSSSPEYPQDENDRSVQAKLQEEASYHAFGIFAEKQTKPQPRQNEAYNREEERKRRVSHDPFAQQRARENIKSAGARGHSDPSTTSRGIAVQQLSWPATQTVWNNGLYNQHGFGTTGTGVWYPPNLSQMYSTYKTPVPETNIPGSTPTMPYFSGPVADDLIKYTIFNSSGIQIGNHNYMDVGLNSQPPNNTCKEESTSRHQAIFDNTTSLTDEHLNPIRENLGRQWKNCARKLGFTESQIDEIDHDYERDGLKEKVYQMLQKWLMREGTKGATVGKLAQALHQCCRIDLLNHLIRASQS

Variants of: B1
Experiment: co-immunoprecipitation (IP: RIPK1, IB: RAGE), optical density of blot; hippocampus of db/db + RAGE-KD mice injected with AAV-RAGE-Wt or AAV-RAGE-Mut; n = 4; mean ± S.D; parent: 1.9; read off a plot

Variant | response
chain 1 R340A, chain 1 K341A, chain 1 R342A, chain 1 Q343A, chain 1 P344A, chain 1 R345A | ~1 fold change to the db/db + RAGE-KD group

Variants of: B1
Experiment: co-immunoprecipitation (IP: RAGE, IB: RIPK1), optical density of blot; hippocampus of db/db + RAGE-KD mice injected with AAV-RAGE-Wt or AAV-RAGE-Mut; n = 4; mean ± S.D; parent: 2.7; read off a plot

Variant | response
chain 1 R340A, chain 1 K341A, chain 1 R342A, chain 1 Q343A, chain 1 P344A, chain 1 R345A | ~0.95 fold change to the db/db + RAGE-KD group

Source: article PMC10916433 (2023)
